Source: patent US20220185894A1 (F STAR THERAPEUTICS, published 2022)
Changes are numbered by the printed parent chain.

T1: mouse LAG-3 expressed on cells (mouse, UniProt Q61790 24-521)
T1 construct: also called mLAG-3; murine LAG-3 HEK
T1 sequence: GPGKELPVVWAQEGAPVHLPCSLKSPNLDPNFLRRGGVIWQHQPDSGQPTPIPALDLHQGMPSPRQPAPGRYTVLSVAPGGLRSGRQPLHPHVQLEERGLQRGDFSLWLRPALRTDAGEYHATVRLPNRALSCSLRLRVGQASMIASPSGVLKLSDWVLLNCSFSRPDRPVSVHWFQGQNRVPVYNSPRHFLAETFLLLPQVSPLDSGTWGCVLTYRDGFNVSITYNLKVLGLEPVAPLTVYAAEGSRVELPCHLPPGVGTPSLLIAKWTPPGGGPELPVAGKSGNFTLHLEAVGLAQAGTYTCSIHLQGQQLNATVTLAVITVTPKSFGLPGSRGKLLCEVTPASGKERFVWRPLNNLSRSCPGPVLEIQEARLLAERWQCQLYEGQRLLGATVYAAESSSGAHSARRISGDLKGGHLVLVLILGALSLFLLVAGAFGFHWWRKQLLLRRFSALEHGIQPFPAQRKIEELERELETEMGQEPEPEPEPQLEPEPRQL

T2: cynomolgus LAG-3 expressed on cells (cynomolgus monkey, UniProt P18627 24-525 (human entry))
T2 construct: also called cLAG-3; cyno LAG-3
T2 chain: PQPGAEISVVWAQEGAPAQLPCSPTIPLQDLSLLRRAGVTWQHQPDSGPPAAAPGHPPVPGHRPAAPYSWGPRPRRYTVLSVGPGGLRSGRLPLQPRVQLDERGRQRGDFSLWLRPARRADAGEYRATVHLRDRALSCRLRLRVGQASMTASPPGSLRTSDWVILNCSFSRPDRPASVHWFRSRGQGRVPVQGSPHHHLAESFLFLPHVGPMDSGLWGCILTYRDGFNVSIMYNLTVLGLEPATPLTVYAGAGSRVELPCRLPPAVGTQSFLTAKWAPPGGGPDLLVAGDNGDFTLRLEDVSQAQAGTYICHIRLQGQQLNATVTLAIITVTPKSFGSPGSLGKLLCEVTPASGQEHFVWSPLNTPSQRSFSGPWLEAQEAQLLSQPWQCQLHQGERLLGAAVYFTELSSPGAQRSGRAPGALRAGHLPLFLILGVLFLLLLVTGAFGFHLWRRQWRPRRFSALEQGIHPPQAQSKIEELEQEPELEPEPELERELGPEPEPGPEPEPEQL

T3: human FcγRIIb/c (R&D Systems, 1875-CD) (human, UniProt P31994 46-217)
T3 construct: Bought recombinant protein
T3 sequence (looked up): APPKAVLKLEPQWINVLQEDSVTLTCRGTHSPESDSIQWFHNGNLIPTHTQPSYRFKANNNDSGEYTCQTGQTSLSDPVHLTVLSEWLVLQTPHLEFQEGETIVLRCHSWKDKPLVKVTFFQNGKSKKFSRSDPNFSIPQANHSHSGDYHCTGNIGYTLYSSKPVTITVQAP

T4: human FcγRIIa (R&D Systems, 1330-CD) (human, UniProt P12318 36-218, limits assumed)
T4 construct: Bought recombinant protein
T4 sequence (looked up): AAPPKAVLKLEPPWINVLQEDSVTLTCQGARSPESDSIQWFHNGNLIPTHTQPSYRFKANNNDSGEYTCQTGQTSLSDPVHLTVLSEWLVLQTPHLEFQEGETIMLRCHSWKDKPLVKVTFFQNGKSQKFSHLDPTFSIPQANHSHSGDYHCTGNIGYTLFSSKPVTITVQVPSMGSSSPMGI

B1: anti-human LAG-3/FITC mock mAb2 FS18-7-9/4420 comprising LALA mutation (bispecific antibody, human IgG1, kappa, L234A L235A)
heavy: EVKLDETGGGLVQPGRPMKLSCVASGFTFSDYWMNWVRQSPEKGLEWVAQIRNKPYNYETYYSDSVKGRFTISRDDSKSSVYLQMNNLRVEDMGIYYCTGSYYGMDYWGQGTSVTVSSASTKGPSVFPLAPSSKSTSGGTAALGCLVKDYFPEPVTVSWNSGALTSGVHTFPAVLQSSGLYSLSSVVTVPSSSLGTQTYICNVNHKPSNTKVDKKVEPKSCDKTHTCPPCPAPEAAGGPSVFLFPPKPKDTLMISRTPEVTCVVVDVSHEDPEVKFNWYVDGVEVHNAKTKPREEQYNSTYRVVSVLTVLHQDWLNGKEYKCKVSNKALPAPIEKTISKAKGQPREPQVYTLPPSWDEPWGEDVSLTCLVKGFYPSDIAVEWESNGQPENNYKTTPPVLDSDGSFFLYSKLTVPYDRWVWPDEFSCSVMHEALHNHYTQKSLSLSPG
light: DVVMTQTPLSLPVSLGDQASISCRSSQSLVHSNGNTYLRWYLQKPGQSPKVLIYKVSNRFSGVPDRFSGSGSGTDFTLKISRVEAEDLGVYFCSQSTHVPWTFGGGTKLEIKRTVAAPSVFIFPPSDEQLKSGTASVVCLLNNFYPREAKVQWKVDNALQSGNSQESVTEQDSKDSTYSLSSTLTLSKADYEKHKVYACEVTHQGLSSPVTKSFNRGEC
notes: Human IgG1 format; also called FS18-7-9/4420LALA; FS18-7-09/4420LALA
B2: anti-human LAG-3/FITC mock mAb2 FS18-7-62/4420 comprising LALA mutation (bispecific antibody, human IgG1, kappa, L234A L235A)
heavy: B1 heavy with Q387I, N390W
light: B1 light
notes: also called FS18-7-62/4420LALA; FS18-7-62 in mock mAb2 format
B3: control anti-human LAG-3 mAb 25F7 (antibody, human IgG1, kappa, L234A L235A, V domains shown)
VH: QVQLQQWGAGLLKPSETLSLTCAVYGGSFSDYYWNWIRQPPGKGLEWIGEINHRGSTNSNPSLKSRVTLSLDTSKNQFSLKLRSVTAADTAVYYCAFGYSDYEYNWFDPWGQGTLVTVSS
VL: EIVLTQSPATLSLSPGERATLSCRASQSISSYLAWYQQKPGQAPRLLIYDASNRATGIPARFSGSGSGTDFTLTISSLEPEDFAVYYCQQRSNWPLTFGQGTNLEIKR
notes: also called benchmark anti-human LAG-3 mAb

Legend:
[1] = target: T1, mouse LAG-3 expressed on cells; experiment: flow cytometry on HEK cells expressing mouse LAG-3
Description: HEK cells expressing mLAG-3 grown in DMEM (Life Technologies, 61965-026) containing 10% FBS (Life Technologies, 10270-1-6), 100 μg/ml Hygromycin B (Melford Laboratories Ltd, Z2475), 15 μg/ml Blasticidin (Melford Laboratories Ltd, B1105) and 1 μg/ml Doxycyclin (Sigma, D9891) were detached from tissue culture flasks using cell dissociation buffer (Life Technologies, 13151-014). Cells were collected by centrifuged at 1500 rpm for 3 min at 4° C. to pellet the cells and then resuspended in 1×DPBS then seeded in V-bottom 96-well plates (Costar, 3897) at 1.2×10⁵ cells/well in 30 μl. A 1:1 volume of a dilution series of the mAb² (or control mAb) was added and incubated with the cells for 1 h at 4° C. The plates were washed and secondary antibody (Anti-human Fc-488, Jackson ImmunoResearch, 109-546-098) was diluted 1:1000 in PBS and 60 μl was added to the cells for 30 min at 4° C. (plates were kept in the dark). The plates were then washed and the cells resuspended in 60 μl PBS containing 1 μg/ml DAPI (Biotium, 40043). The plates were read using Canto II flow cytometer (BD Bioscience). Dead cells were excluded and the fluorescence in the FITC channel (488 nm/530/30) was measured. The data was fitted using log (agonist) vs response in GraphPad Prism Software.

[2] = target: T2, cynomolgus LAG-3 expressed on cells; experiment: flow cytometry on DO11.10 cells expressing cynomolgus LAG-3
Description: DO11.10:LAG-3 cell suspensions were prepared in PBS+2% BSA (Sigma, A7906) and seeded at […] with 50 μl/well in V-bottomed 96-well plates (Costar, 3897). […] The plates were washed and 100 μl/well of secondary antibody (anti-human Fc-488 antibody, Jackson ImmunoResearch, 109-546-098) diluted 1:1000 in PBS+2% BSA was then added and incubated for 30 mins at 4° C. in the dark. The plates were washed and resuspended in 100 μl of PBS containing DAPI (Biotium, 40043) at […]. The plates were read using Canto II flow cytometer (BD Bioscience). The dead cells were excluded and the fluorescence in the FITC channel (488 nm/530/30) was measured. The data was fit using log (agonist) vs response in GraphPad Prism Software.

[3] = target: T3, human FcγRIIb/c (R&D Systems, 1875-CD); experiment: SPR, Biacore T200; FcγR immobilised, 500 µg/ml injected
Description: (§1) The introduction of the LALA mutation in the CH2 domain of human IgG1 is known to reduce Fc γ receptor binding (Bruhns, P., et al. (2009); and Xu, D. et al. (2000)). […] The human FcγR binding assay was performed on a Biacore T200 instrument (GE Healthcare) using the Fcabs in the mock mAb² format. […] For each immobilized chip a flow cell was left blank for background subtraction. FcγR were immobilized using a concentration of 5 μg/ml in sodium acetate pH5 (ForteBio, 18-1069) and injected at a flow rate of 10 μl/min in 15 second cycles until the required immobilization level was reached.
(§2) The flow cells were regenerated by injecting 10 mM sodium hydroxide (VWR, 28244.262) at a flow rate of 100 μl/min for 30 seconds. The data analysis was performed with BiaEvaluation software version 3.2 RC1 by double referencing against the blank flow cell (without immobilized FcγR) and subtracting a buffer cycle from test mAb².

[4] = target: T4, human FcγRIIa (R&D Systems, 1330-CD); experiment: as above
Description: as §1, §2

[5] = target: T5, human FcγRIIIa (R&D Systems, 4325-FC) (human, UniProt P08637 17-208); experiment: SPR, Biacore T200; FcγR immobilised, 200 µg/ml injected
T5 construct: Bought recombinant protein
Description: as §1, §2

[6] = target: T6, human FcγRI (R&D Systems, 1257-FC) (human, UniProt P12314 16-288); experiment: as above
T6 construct: Bought recombinant protein
Description: as §1, §2

T5 sequence (P08637 17-208 limits assumed): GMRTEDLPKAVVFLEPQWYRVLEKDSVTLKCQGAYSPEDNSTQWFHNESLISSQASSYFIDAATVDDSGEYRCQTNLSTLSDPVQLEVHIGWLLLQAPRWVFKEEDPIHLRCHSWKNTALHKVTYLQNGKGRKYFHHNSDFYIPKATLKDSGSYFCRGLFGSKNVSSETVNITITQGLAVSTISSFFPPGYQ
T6 sequence (P12314 16-288 limits assumed): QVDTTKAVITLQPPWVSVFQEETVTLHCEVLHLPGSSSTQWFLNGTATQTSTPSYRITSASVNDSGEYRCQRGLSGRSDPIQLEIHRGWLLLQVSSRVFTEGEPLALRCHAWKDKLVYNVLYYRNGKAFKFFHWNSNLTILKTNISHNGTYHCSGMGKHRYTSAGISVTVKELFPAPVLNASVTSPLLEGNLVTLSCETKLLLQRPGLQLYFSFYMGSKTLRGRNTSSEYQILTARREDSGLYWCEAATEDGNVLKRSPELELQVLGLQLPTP

Binder | EC50 [1] [nM] | EC50 [2] [nM] | binding response at end of association (RU) [3] [RU] | binding response at end of association (RU) [4] [RU] | binding response at end of association (RU) [5] [RU] | binding response at end of association (RU) [6] [RU] | binding result [1]
B1 | 19 | 0.6 | -8.5 | -9.8 | 6.6 | 1.4 | 
B2 |  | 0.5 | -8.5 | -10 | 0.7 | -0.9 | 
B3 |  |  |  |  |  |  | no binding
